Data published in publication PMC7803729.

Molecular target: CT-P59 monoclonal antibody (fully human IgG) (human)
Assay: BLI

CT-P59 monoclonal antibody (fully human IgG) (human), sequence (heavy, as listed by the source, chain 1 of 2): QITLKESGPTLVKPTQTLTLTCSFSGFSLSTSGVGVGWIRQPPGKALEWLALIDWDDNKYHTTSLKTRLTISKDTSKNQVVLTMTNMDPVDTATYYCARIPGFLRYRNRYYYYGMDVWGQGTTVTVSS
CT-P59 monoclonal antibody (fully human IgG) (human), sequence (light, as listed by the source, chain 2 of 2): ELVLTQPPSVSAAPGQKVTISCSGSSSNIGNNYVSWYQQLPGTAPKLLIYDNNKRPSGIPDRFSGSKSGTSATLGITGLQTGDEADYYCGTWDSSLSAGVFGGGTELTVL

Which results are given for “SARS-CoV-2 RBD K458R (commercial, Sino Biological) (from UniProt P0DTC2) (domain or fragment)”?
Kd: 0.236 nM; koff: 0.000246 s⁻¹; kon: 1.04e+06 M⁻¹ s⁻¹

Which results are given for “SARS-CoV-2 RBD N354D (commercial, Sino Biological) (from UniProt P0DTC2) (domain or fragment)”?
Kd: 0.294 nM; koff: 0.000253 s⁻¹; kon: 861000 M⁻¹ s⁻¹

Which Kd does the source give for “SARS-CoV-2 RBD V367F (commercial, Sino Biological) (from UniProt P0DTC2) (domain or fragment)” here?
The Kd was 0.292 nM.

And the koff?
Its koff is 0.000265 s⁻¹.

And the kon?
The kon was 907000 M⁻¹ s⁻¹.

How did the Kd turn out when “SARS-CoV-2 RBD W436R (commercial, Sino Biological) (from UniProt P0DTC2) (domain or fragment)” was run?
The Kd was 0.221 nM.

What about the koff of the same substance?
Its koff is 0.00018 s⁻¹.

What about the kon of the same substance?
Its kon is 816000 M⁻¹ s⁻¹.
